Laboratory results: article PMC2592539
Square brackets hold non-standard residues; d marks the D form. Side chains are listed from the residue outwards. Ends that are not written are not given here. * marks the point of attachment. Biotin = O=C1N[C@H]2[C@H](CS[C@H]2CCCCC(=O)*)N1; Bpa = N[C@@H](Cc1ccc(C(=O)c2ccccc2)cc1)C(=O)O; PEG linker = not defined here

How the values were obtained:
[1] = target: HLA-A0201 MHC class I molecule on T2 cells (human (endogenous in T2) | human); assay: flow cytometry on cells; internalization study: T2 cells with 1 uM biotinylated peptide at 37 degrees, peptide left on; surface peptide by anti-biotin staining at 2, 6 and 24 h
[2] = target: HLA-A0201 MHC class I molecule on T2 cells (human (endogenous in T2) | human); assay: flow cytometry on cells; internalization study (pulse-chase): T2 cells with 1 uM biotinylated peptide for 2 hr at 37 degrees, washed twice, incubated a further 4 or 22 hours; surface peptide by anti-biotin staining
[3] = target: HLA-A0201 MHC class I molecule on T2 cells (human (endogenous in T2) | human); assay: flow cytometry on cells; T2 cells treated with 1 uM biotinylated peptide for 16 hours, no UV; peptide on the cell surface stained with anti-biotin AlexaFluor 488 antibody
[4] = target: HLA-A0201 MHC class I molecule on T2 cells (human (endogenous in T2) | human); assay: flow cytometry on cells; T2 cells treated with 1 uM biotinylated peptide for 16 hours, then exposed to UV light; peptide on the cell surface stained with anti-biotin AlexaFluor 488 antibody

- mean fluorescence (anti-biotin) at 2 h [1]: 8.74
- mean fluorescence (anti-biotin) at 6 h [1]: 44.4
- mean fluorescence (anti-biotin) at 24 h [1]: 23.4
- mean fluorescence (anti-biotin) at 6 h, washed after 2 h [2]: 6.69
- mean fluorescence (anti-biotin) [3]: 41.5
- mean fluorescence (anti-biotin) [4]: 43.2
Binder: [Bpa]LGEQ([PEG linker-Biotin])QYSV (reading uncertain) [WT1B-S1Fbz-bio]
